From patent publication EP4810052A2 (Gubra A/S, dated 2026)
Where two headings read alike, the source gives them in different places. Non-standard residues stand in square brackets, D forms with d. No end group written: not given here. NMeI = CC[C@H](C)[C@H](NC)C(=O)O; Nle = CCCC[C@H](N)C(=O)O; lip = not defined here; Aib = CC(C)(N)C(=O)O

T1: human corticotropin-releasing hormone receptor 1 (human, UniProt P34998 24-415)
T1 sequence (looked up): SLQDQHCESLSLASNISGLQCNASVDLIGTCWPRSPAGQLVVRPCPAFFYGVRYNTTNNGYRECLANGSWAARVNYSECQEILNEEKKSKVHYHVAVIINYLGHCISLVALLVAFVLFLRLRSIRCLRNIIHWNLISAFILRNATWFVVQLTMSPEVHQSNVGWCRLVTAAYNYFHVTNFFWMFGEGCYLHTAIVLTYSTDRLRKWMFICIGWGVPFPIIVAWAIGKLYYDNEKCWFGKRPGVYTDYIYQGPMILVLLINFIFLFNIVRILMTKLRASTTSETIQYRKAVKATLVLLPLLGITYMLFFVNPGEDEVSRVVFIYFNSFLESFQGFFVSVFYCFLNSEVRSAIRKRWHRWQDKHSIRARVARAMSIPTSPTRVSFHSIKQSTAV

B1: SEQ ID NO: 45 (peptide)
peptide: IVLSLDVPIGLLQILLEQARARAAREQAKTNAEI[Nle]AEV-NH2
modifications: not fully specified (residue 29); also: lipid and spacer on Lys29 not given here
B2: SEQ ID NO: 19 (peptide)
peptide: IVLSLDVPIGLLQILLEQARARAAREQAK[Aib]NAEILAEV-NH2
modifications: not fully specified (residue 29); also: lipid and spacer on Lys29 not given here
B3: SEQ ID NO: 236 (peptide)
peptide: IVLSLDVPIGLLQILLEQARARAAREQAK[Aib]NAEI[Nle]AEI-NH2
modifications: not fully specified (residue 29); also: lipid and spacer on Lys29 not given here
B4: SEQ ID NO: 20 (peptide)
peptide: [NMeI]VLSLDVPIGLLQILLEQARARAAREQAK[Aib]NAEILAEV-NH2
modifications: not fully specified (residue 29); also: lipid and spacer on Lys29 not given here
B5: SEQ ID NO: 234 (peptide)
peptide: IVLSLDVPIGLLQILLSQARARAAREQAKTN[Aib]EI[Nle]AEV-NH2
modifications: not fully specified (residue 29); also: lipid and spacer on Lys29 not given here
B6: SEQ ID NO: 237 (peptide)
peptide: IVLSLDVPIGLLQILLSQARARAAREQAK[Aib]NAEI[Nle]AEV-NH2
modifications: not fully specified (residue 29); also: lipid and spacer on Lys29 not given here
B7: SEQ ID NO: 5 (peptide)
peptide: [NMeI]VLSLDVPIGLLQILLEQARARAAREQAKTNAEILAEV-NH2
modifications: not fully specified (residue 29); also: lipid and spacer on Lys29 not given here
B8: SEQ ID NO: 239 (peptide)
peptide: IVLSLDVPIGLLQILLSQARARAAREQAKENAEI[Nle]AEV-NH2
modifications: not fully specified (residue 29); also: lipid and spacer on Lys29 not given here
B9: SEQ ID NO: 69 (peptide)
peptide: IVLSLDVPIGLLQILLEQARARAAREQAKTNAEI[Nle]AEI-NH2
modifications: not fully specified (residue 29); also: lipid and spacer on Lys29 not given here

Tests used:
Test in all cases: cell-based or functional assay
[1] = target: T1, human corticotropin-releasing hormone …
[2] = target: T1, human corticotropin-releasing hormone …; remark: listed apart in the source
[3] = target: T1, human corticotropin-releasing hormone …; remark: listed apart in the source

Row | Binder | hCRHR1 EC50 (nM); HTRF cAMP assay, CHO-K1 cells stably expressing hCRHR1 [1] | hCRHR1 EC50 (nM); HTRF cAMP assay, CHO-K1 cells stably expressing hCRHR1 [2] | also measured
1 | [NMeI]VTSLDVPIGLLQILLEQEKQEKEKQQAK(lip)TNAEILAQV-NH2 (reading uncertain) [SEQ ID NO: 10 (prior art peptide)] | 68 nM | – | –
2 | B1 | – | 56 nM | –
3 | [NMeI]VLSLDVPIGLLQILLSQARARAAREQAK(lip)[Aib]NAEI[Nle]AEV-NH2 (reading uncertain) [SEQ ID NO: 132] | – | > 5000 nM | –
4 | Ac-IVLSLDVPIGLLQILLEQARARAAREQAK(lip)TNAEILAEV-NH2 (not fully specified; reading uncertain) [SEQ ID NO: 8] | 560 nM | – | –
5 | PVLSLDVPIGLLQILLEQARARAAREQAK(lip)TNAEILAEV-NH2 (not fully specified; reading uncertain) [SEQ ID NO: 7] | > 5000 nM | – | –
6 | B2 | – | – | hCRHR1 EC50 (nM); HTRF cAMP assay, CHO-K1 cells stably expressing hCRHR1 [3]: > 5000 nM
7 | IVLSLDVPIGLLQILLEQARARAAREQAK(lip)TNLEILAEV-NH2 (not fully specified; reading uncertain) [SEQ ID NO: 12] | – | – | hCRHR1 EC50 (nM); HTRF cAMP assay, CHO-K1 cells stably expressing hCRHR1 [3]: > 5000 nM
8 | IVLSLDVPIGLLQILLSQARARAAREQAK(lip)TNAEI[Nle]AEI-NH2 (not fully specified; reading uncertain) [SEQ ID NO: 89] | – | > 5000 nM | –
9 | [NMeI]VLSLDVPIGLLQILLEQARARAAREQAK(lip)ENAEILAEV-NH2 (reading uncertain) [SEQ ID NO: 18] | – | – | hCRHR1 EC50 (nM); HTRF cAMP assay, CHO-K1 cells stably expressing hCRHR1 [3]: > 5000 nM
10 | K(lip)IVLSLDVPIGLLQILLEQARARAAREQATTNAEILAEV-NH2 (not fully specified; reading uncertain) [SEQ ID NO: 11 (prior art peptide)] | 670 nM | – | –
11 | [NMeI]VLSLDVPIGLLQILLSQARARAAREQAK(lip)ENAEI[Nle]AEV-NH2 (reading uncertain) [SEQ ID NO: 101] | – | > 5000 nM | –
12 | B3 | – | > 5000 nM | –
13 | IVLSLDVPIGLLQILLSQARARAAREQAK(lip)TNAEI[Nle]AEV-NH2 (not fully specified; reading uncertain) [SEQ ID NO: 83] | – | > 5000 nM | –
14 | [NMeI]VLSLDVPIGLLQILLEQEKQEKEKQQAK(lip)TNAQILAQV-NH2 (not fully specified; reading uncertain) [SEQ ID NO: 9 (prior art peptide)] | 510 nM | – | –
15 | B4 | – | – | hCRHR1 EC50 (nM); HTRF cAMP assay, CHO-K1 cells stably expressing hCRHR1 [3]: > 5000 nM
16 | IVLSLDVPIGLLQILLEQARARAAREQATK(lip)NAEILAEV-NH2 (not fully specified; reading uncertain) [SEQ ID NO: 4] | > 5000 nM | – | –
17 | IVLSLDVPIGLK(lip)QILLEQARARAAREQATTNAEILAEV-NH2 (not fully specified; reading uncertain) [SEQ ID NO: 261] | > 5000 nM | – | –
18 | IVLSLDVPIGLLQILLEQARARAAREQAK(lip)TNARILARV-NH2 (not fully specified; reading uncertain) [SEQ ID NO: 2 (lipidated version of native UCN2)] | > 5000 nM | – | –
19 | lip-IVLSLDVPIGLLQILLEQARARAAREQATTNAEILAEV-NH2 (not fully specified; reading uncertain) [SEQ ID NO: 260] | 110 nM | – | –
20 | B5 | – | > 5000 nM | –
21 | IVLSLDVPIGLLQILLEQARARAAREQAK(lip)TN[Aib]EILAEV-NH2 (reading uncertain) [SEQ ID NO: 15] | – | – | hCRHR1 EC50 (nM); HTRF cAMP assay, CHO-K1 cells stably expressing hCRHR1 [3]: > 5000 nM
22 | B6 | – | > 5000 nM | –
23 | B7 | > 5000 nM | – | –
24 | B8 | – | > 5000 nM | –
25 | IVLSLDVPIGLLQILLEQARARAAREQAK(lip)TNVEILAEV-NH2 (not fully specified; reading uncertain) [SEQ ID NO: 14] | – | – | hCRHR1 EC50 (nM); HTRF cAMP assay, CHO-K1 cells stably expressing hCRHR1 [3]: > 5000 nM
26 | IVLSLDVPIGLLQILLEQARARAAREQAK(lip)ENAEILAEV-NH2 (not fully specified; reading uncertain) [SEQ ID NO: 17] | – | – | hCRHR1 EC50 (nM); HTRF cAMP assay, CHO-K1 cells stably expressing hCRHR1 [3]: > 5000 nM
27 | IVLSLDVPIGLLQILLEQARARAAREQAK(lip)TNIEILAEV-NH2 (not fully specified; reading uncertain) [SEQ ID NO: 13] | – | – | hCRHR1 EC50 (nM); HTRF cAMP assay, CHO-K1 cells stably expressing hCRHR1 [3]: > 5000 nM
28 | B9 | – | > 5000 nM | –
